Test results as given in patent US20210137940A1 (AstraZeneca / MedImmune, published 2021).

B1: HAKA-A (ADC of J415RHA+J415RKA anti-PSMA antibody conjugated to drug linker A) (antibody, V domains shown)
VH: EVQLVESGGGLVQPGGSLKLSCAASGFTFSNYWMNWVRQASGKGLEWVGEIRSQSNNFATHYAESVKGRFTISRDDSKNTAYLQMNSLKTEDTAVYYCTRRWNNFWGQGTTVTVSS
VL: DIQMTQSPSSVSASVGDRVTITCKASENVGTYVSWYQQKPGTAPKLLIYGASNRFTGVPSRFSGSGSATDFTLTINNLQPEDFATYYCGQSYTFPYTFGQGTKVEIK
modifications: PBD drug linker A conjugated to reduced cysteine thiols (positions not stated); measured DAR 1.17 per antibody
B2: HAKB-A (ADC of J415RHA+J415RKB anti-PSMA antibody conjugated to drug linker A) (antibody, V domains shown)
VH: B1 VH
VL: B1 VL
modifications: PBD drug linker A conjugated to reduced cysteine thiols (positions not stated); measured DAR 1.86 per antibody

Biological target: Prostate-Specific Membrane Antigen (PSMA), as expressed on LNCaP cells (human, UniProt Q04609 1-750)
Assay: cell-based or functional assay

Sequence of Prostate-Specific Membrane Antigen (PSMA), as expressed on LNCaP cells (Q04609 whole entry): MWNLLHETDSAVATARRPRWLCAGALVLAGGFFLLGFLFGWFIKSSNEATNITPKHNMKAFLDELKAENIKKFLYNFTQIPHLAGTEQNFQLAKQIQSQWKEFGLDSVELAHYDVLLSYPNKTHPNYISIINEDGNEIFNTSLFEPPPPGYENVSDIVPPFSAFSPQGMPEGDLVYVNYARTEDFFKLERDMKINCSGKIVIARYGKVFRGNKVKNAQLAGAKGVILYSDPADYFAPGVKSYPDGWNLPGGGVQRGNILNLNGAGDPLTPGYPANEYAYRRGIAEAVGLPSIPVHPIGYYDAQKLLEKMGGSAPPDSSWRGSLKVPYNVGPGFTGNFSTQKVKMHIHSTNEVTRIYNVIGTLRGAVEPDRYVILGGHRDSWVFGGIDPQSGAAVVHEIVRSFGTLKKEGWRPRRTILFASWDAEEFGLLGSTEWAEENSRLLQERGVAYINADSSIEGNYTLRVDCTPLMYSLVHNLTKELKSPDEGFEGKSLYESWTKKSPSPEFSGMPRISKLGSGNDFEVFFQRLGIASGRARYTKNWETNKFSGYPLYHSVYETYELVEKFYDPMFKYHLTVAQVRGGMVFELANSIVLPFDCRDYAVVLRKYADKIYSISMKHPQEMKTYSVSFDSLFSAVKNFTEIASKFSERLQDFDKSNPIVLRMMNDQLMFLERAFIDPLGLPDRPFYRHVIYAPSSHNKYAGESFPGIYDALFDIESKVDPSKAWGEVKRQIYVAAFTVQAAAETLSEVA

Binder | EC50 (µg/mL), in vitro cytotoxicity on LNCaP cells (Alamar Blue cell survival, 4-day incubation) [µg/mL]
B1 | 0.00186
B2 | 0.00163
